The supplement of paper PMC9732359
± gives the uncertainty stated by the source.

Assay: protein stability index of a GFP-peptide fusion (yeast GPS) (PSI 1-4); higher = more stable; sorted into four equal gates, so the index is relative within each strain
Summary of the method: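 For each peptide, the protein stability index sums the read frequency in every gate after multiplying it by the gate number. Read frequencies came from plasmids that were PCR-amplified from each gate and Illumina-sequenced, with reads assigned to strains by barcodes. The gates were four equal bins of GFP/Cherry fluorescence ratio applied to mid-log yeast in leucine-free medium carrying a pooled library of tiled 17-residue yeast protein peptides fused downstream of GFP on a Cherry-expressing plasmid.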

NKKSEQALDISKKGKPT [SRP72]
protein stability index (doa10∆): 3.1 ± 0.1
protein stability index (pdr5∆): 3.02 ± 0.071
protein stability index (san1∆): 2.81 ± 0.061
protein stability index (ubr1∆): 3.04 ± 0.073

SVIVKFHSEPDRDENWI [LIN1]
protein stability index (doa10∆): 2.69 ± 0.072
protein stability index (pdr5∆): 3.08 ± 0.071
protein stability index (san1∆): 2.96 ± 0.056
protein stability index (ubr1∆): 2.75 ± 0.044

FTIRGFKQKLNELLKCK [MTW1]
protein stability index (doa10∆): 3.05 ± 0.059
protein stability index (pdr5∆): 2.92 ± 0.073
protein stability index (san1∆): 2.93 ± 0.064
protein stability index (ubr1∆): 3.17 ± 0.046

KAASSTRIFQALPRKLR [POP1]
protein stability index (doa10∆): 2.64 ± 0.1
protein stability index (pdr5∆): 3.36 ± 0.15
protein stability index (san1∆): 2.76 ± 0.12
protein stability index (ubr1∆): 2.77 ± 0.086

PSQTLFSISYKPPTQKT [SRP21]
protein stability index (doa10∆): 2.23 ± 0.036
protein stability index (pdr5∆): 2.2 ± 0.039
protein stability index (san1∆): 1.97 ± 0.056
protein stability index (ubr1∆): 2.1 ± 0.032

LMKCCHEAYSIIEKITD [RRP45]
protein stability index (doa10∆): 2.56 ± 0.067
protein stability index (pdr5∆): 2.68 ± 0.09
protein stability index (san1∆): 2.56 ± 0.086
protein stability index (ubr1∆): 2.52 ± 0.18

KQNNKDFRTRYIDIRTN [MTW1]
protein stability index (doa10∆): 2.69 ± 0.07
protein stability index (pdr5∆): 2.65 ± 0.072
protein stability index (san1∆): 2.31 ± 0.1
protein stability index (ubr1∆): 2.62 ± 0.077

EAEVTAEVNGGDDEATE [BRR2]
protein stability index (pdr5∆): 3.24 ± 0.12
protein stability index (ubr1∆): 2.72 ± 0.21

ARVLFDDMVEYEDGTPA [CYT1]
protein stability index (doa10∆): 3.47 ± 0.17
protein stability index (pdr5∆): 3.09 ± 0.096
protein stability index (san1∆): 3.24 ± 0.085
protein stability index (ubr1∆): 3.48 ± 0.11

TRDVEPENLQVTSEKYP [BRR2]
protein stability index (doa10∆): 2.75 ± 0.1
protein stability index (pdr5∆): 3.35 ± 0.18
protein stability index (ubr1∆): 3.13 ± 0.11

LVDLVSHFSPDIKAAVD [ITC1]
protein stability index (doa10∆): 1.95 ± 0.063
protein stability index (pdr5∆): 1.99 ± 0.071
protein stability index (san1∆): 2.09 ± 0.076
protein stability index (ubr1∆): 2.54 ± 0.05

SLAWSADGQTLFAGYTD [ASC1]
protein stability index (doa10∆): 2.66 ± 0.08
protein stability index (pdr5∆): 3.05 ± 0.091
protein stability index (san1∆): 2.7 ± 0.075
protein stability index (ubr1∆): 3.09 ± 0.1

AQQLVGVYKRDNRTKST [SMC4]
protein stability index (doa10∆): 3.11 ± 0.2
protein stability index (pdr5∆): 3.04 ± 0.2

MFTATMTPVIEKIAAGY [PRP28]
protein stability index (doa10∆): 2.2 ± 0.13
protein stability index (pdr5∆): 1.81 ± 0.11
protein stability index (san1∆): 1.5 ± 0.15
protein stability index (ubr1∆): 2.35 ± 0.076

FLKKNIIKENVKVARLA [FAS1]
protein stability index (pdr5∆): 1.56 ± 0.26

LPKYQTIQYDPPETKLP [SNF5]
protein stability index (doa10∆): 3.03 ± 0.052
protein stability index (pdr5∆): 2.96 ± 0.046
protein stability index (san1∆): 2.92 ± 0.04
protein stability index (ubr1∆): 3.01 ± 0.039

KIAHGTTTLAFRFQGGI [PRE2]
protein stability index (doa10∆): 3.03 ± 0.095
protein stability index (pdr5∆): 3.11 ± 0.073
protein stability index (san1∆): 2.84 ± 0.067
protein stability index (ubr1∆): 3.1 ± 0.069

NVMLEKIKDNKEKIKNN [RPT5]
protein stability index (doa10∆): 2.78 ± 0.12
protein stability index (pdr5∆): 2.94 ± 0.087
protein stability index (san1∆): 2.55 ± 0.099
protein stability index (ubr1∆): 2.72 ± 0.094

ILNLLNILTTHLSHPGT [ECM29]
protein stability index (doa10∆): 2.03 ± 0.042
protein stability index (pdr5∆): 1.75 ± 0.04
protein stability index (san1∆): 1.65 ± 0.05
protein stability index (ubr1∆): 1.76 ± 0.037

HMISQEGIKETQAKRIF [SWI1]
protein stability index (doa10∆): 3.1 ± 0.17
protein stability index (pdr5∆): 3.53 ± 0.21
protein stability index (san1∆): 3.19 ± 0.11
protein stability index (ubr1∆): 3.22 ± 0.13

GKKKSATAVAHVKAGKG [RPS16A]
protein stability index (doa10∆): 2.86 ± 0.094
protein stability index (pdr5∆): 2.69 ± 0.073
protein stability index (san1∆): 2.49 ± 0.11
protein stability index (ubr1∆): 2.53 ± 0.11

TYLLKNDLVKARDLLDD [RPN9]
protein stability index (doa10∆): 2.7 ± 0.11
protein stability index (pdr5∆): 2.78 ± 0.11
protein stability index (ubr1∆): 2.52 ± 0.18

YNEFLYSKAGREELERV [QCR8]
protein stability index (doa10∆): 2.86 ± 0.11
protein stability index (pdr5∆): 2.73 ± 0.19
protein stability index (san1∆): 3.35 ± 0.1
protein stability index (ubr1∆): 2.98 ± 0.1

DKEKEENNDDALDLDLD [MED4]
protein stability index (doa10∆): 2.92 ± 0.072
protein stability index (pdr5∆): 3.12 ± 0.095
protein stability index (san1∆): 2.95 ± 0.063
protein stability index (ubr1∆): 3.16 ± 0.054

YLMTYPQQPMVKTKTIE [RET1]
protein stability index (doa10∆): 1.81 ± 0.099
protein stability index (pdr5∆): 1.69 ± 0.15
protein stability index (san1∆): 1.61 ± 0.24
protein stability index (ubr1∆): 1.08 ± 0.065

NGGDKELEMIGGTNEDD [YCS4]
protein stability index (doa10∆): 3.25 ± 0.22
protein stability index (pdr5∆): 2.79 ± 0.21
protein stability index (san1∆): 2.46 ± 0.22
protein stability index (ubr1∆): 3.05 ± 0.27

SSQVREHVKELLKYSNE [RPL1A]
protein stability index (doa10∆): 1.63 ± 0.077
protein stability index (pdr5∆): 2.23 ± 0.06
protein stability index (san1∆): 2.47 ± 0.085
protein stability index (ubr1∆): 2.13 ± 0.047

MHRKSLRRASATVPSAP [YAR002W/NUP60]
protein stability index (doa10∆): 2.64 ± 0.071
protein stability index (pdr5∆): 2.82 ± 0.092
protein stability index (san1∆): 2.39 ± 0.064
protein stability index (ubr1∆): 2.74 ± 0.063

MSLKKCQEEVSTIEKDM [SMC2]
protein stability index (doa10∆): 2.48 ± 0.1
protein stability index (pdr5∆): 2.73 ± 0.12
protein stability index (san1∆): 2.75 ± 0.14
protein stability index (ubr1∆): 2.79 ± 0.2

NRSAKNSKNDSANVELF [YCS4]
protein stability index (doa10∆): 3.09 ± 0.093
protein stability index (pdr5∆): 3.29 ± 0.11
protein stability index (san1∆): 2.94 ± 0.12
protein stability index (ubr1∆): 3.39 ± 0.072

VPVRSFKGHSHIVQDCT [ASC1]
protein stability index (doa10∆): 2.5 ± 0.073
protein stability index (pdr5∆): 3.11 ± 0.064
protein stability index (san1∆): 2.91 ± 0.081
protein stability index (ubr1∆): 2.83 ± 0.049

DSNYKWDLSVEDALYLG [PRE2]
protein stability index (doa10∆): 3.34 ± 0.085
protein stability index (pdr5∆): 3.35 ± 0.082
protein stability index (san1∆): 3.33 ± 0.07
protein stability index (ubr1∆): 3.39 ± 0.049

AAAFSQQQNASSKLYQM [GAL11]
protein stability index (doa10∆): 2.71 ± 0.097
protein stability index (pdr5∆): 2.86 ± 0.071
protein stability index (san1∆): 2.82 ± 0.045
protein stability index (ubr1∆): 3.25 ± 0.072

SVLISIPLDNYDDFIYL [PCI8]
protein stability index (doa10∆): 1.25 ± 0.048
protein stability index (pdr5∆): 1.75 ± 0.055
protein stability index (san1∆): 1.28 ± 0.11
protein stability index (ubr1∆): 1.52 ± 0.042

GGTSDMNYLLDNKINEI [CSI1]
protein stability index (doa10∆): 2.85 ± 0.11
protein stability index (pdr5∆): 2.87 ± 0.087
protein stability index (san1∆): 3.17 ± 0.059
protein stability index (ubr1∆): 3.25 ± 0.078

FKERQMMVSYPKIDEDD [AAR2]
protein stability index (doa10∆): 3.28 ± 0.061
protein stability index (pdr5∆): 3.2 ± 0.055
protein stability index (san1∆): 3.19 ± 0.045
protein stability index (ubr1∆): 3.35 ± 0.043

REGLIDTAVKTAETGYI [RPO21]
protein stability index (doa10∆): 1.13 ± 0.058
protein stability index (pdr5∆): 1.37 ± 0.099
protein stability index (san1∆): 1.23 ± 0.18
protein stability index (ubr1∆): 1.13 ± 0.051

CITKQDGFKIYDNEKTA [PUP2]
protein stability index (doa10∆): 2.85 ± 0.1
protein stability index (pdr5∆): 3.06 ± 0.063
protein stability index (san1∆): 3.1 ± 0.05
protein stability index (ubr1∆): 2.82 ± 0.095

FMDNSYDIDEIDHSDES [ESC2]
protein stability index (san1∆): 2.66 ± 0.14
protein stability index (ubr1∆): 2.82 ± 0.13

KMPGGFTITVARKYLQT [FAS2]
protein stability index (doa10∆): 1.24 ± 0.039
protein stability index (pdr5∆): 1.47 ± 0.065
protein stability index (san1∆): 1.21 ± 0.084
protein stability index (ubr1∆): 1.27 ± 0.052

RAPQQSVLQLFQSVQLN [SMC2]
protein stability index (doa10∆): 2 ± 0.05
protein stability index (pdr5∆): 1.98 ± 0.044
protein stability index (san1∆): 2.24 ± 0.051
protein stability index (ubr1∆): 1.91 ± 0.034

SKTVKVLKTLIEKFEQV [RPN6]
protein stability index (doa10∆): 2.27 ± 0.2
protein stability index (pdr5∆): 3.25 ± 0.1
protein stability index (san1∆): 3.07 ± 0.11
protein stability index (ubr1∆): 2.83 ± 0.07

SELDSNDFFIIYYTPAF [YJL039C/NUP192]
protein stability index (doa10∆): 1.39 ± 0.065
protein stability index (pdr5∆): 1.51 ± 0.041
protein stability index (san1∆): 1.63 ± 0.075
protein stability index (ubr1∆): 1.55 ± 0.044

MNKIFTIFKSGEIDFIK [YML103C/NUP188]
protein stability index (doa10∆): 2.51 ± 0.091
protein stability index (pdr5∆): 2.62 ± 0.054
protein stability index (san1∆): 2.41 ± 0.075
protein stability index (ubr1∆): 2.59 ± 0.06

IYNELSYELIKEECQIE [CSN9]
protein stability index (doa10∆): 2.47 ± 0.08
protein stability index (pdr5∆): 2.66 ± 0.06
protein stability index (san1∆): 2.73 ± 0.057
protein stability index (ubr1∆): 3 ± 0.048

RVAKGSGTSVFEVEMIL [SRP54]
protein stability index (doa10∆): 3.28 ± 0.071
protein stability index (pdr5∆): 3.26 ± 0.099
protein stability index (san1∆): 3.39 ± 0.076
protein stability index (ubr1∆): 3.42 ± 0.12

LLTAKHGMTLRESFEDN [RPO21]
protein stability index (doa10∆): 2.96 ± 0.13
protein stability index (pdr5∆): 2.56 ± 0.087
protein stability index (san1∆): 2.6 ± 0.086
protein stability index (ubr1∆): 1.55 ± 0.092

RLFNVVVQDSQTATQLL [SMC2]
protein stability index (doa10∆): 2.94 ± 0.07
protein stability index (pdr5∆): 2.79 ± 0.11
protein stability index (san1∆): 2.61 ± 0.1
protein stability index (ubr1∆): 2.44 ± 0.079

PRVQGFYVPQARNVTFD [GRR1]
protein stability index (doa10∆): 2.99 ± 0.064
protein stability index (pdr5∆): 2.68 ± 0.056
protein stability index (san1∆): 2.91 ± 0.038
protein stability index (ubr1∆): 3.02 ± 0.045

KPYSGKLLKVCLTMFED [ECM29]
protein stability index (doa10∆): 2.18 ± 0.056
protein stability index (pdr5∆): 2.17 ± 0.058
protein stability index (san1∆): 2.67 ± 0.045
protein stability index (ubr1∆): 2.36 ± 0.058

PLLARKQFVVDVLHPNR [RPS24A]
protein stability index (doa10∆): 1.58 ± 0.14
protein stability index (pdr5∆): 1.83 ± 0.072
protein stability index (san1∆): 1.72 ± 0.12
protein stability index (ubr1∆): 1.62 ± 0.071

SFSVCKIRCFRYISTLT [IRR1]
protein stability index (doa10∆): 1.61 ± 0.057
protein stability index (pdr5∆): 1.39 ± 0.055
protein stability index (san1∆): 1.49 ± 0.11
protein stability index (ubr1∆): 1.31 ± 0.052

SEIKQQINKAQILENYN [YJL039C/NUP192]
protein stability index (doa10∆): 2.94 ± 0.089
protein stability index (pdr5∆): 3.17 ± 0.069
protein stability index (san1∆): 2.73 ± 0.091
protein stability index (ubr1∆): 3.11 ± 0.057

NLSSNVNFTEIGGLIPQ [YCS4]
protein stability index (doa10∆): 2.77 ± 0.071
protein stability index (pdr5∆): 2.46 ± 0.073
protein stability index (san1∆): 2.49 ± 0.08
protein stability index (ubr1∆): 2.47 ± 0.059
